From US20210025890A1 (Genentech, published 2021) come the findings set out here.

Experiment [1] addresses T1, intact human FGF21 (human, UniProt Q9NSA1 29-209).
T1 construct: also called full-length, uncleaved FGF21; iFGF21
T1 sequence: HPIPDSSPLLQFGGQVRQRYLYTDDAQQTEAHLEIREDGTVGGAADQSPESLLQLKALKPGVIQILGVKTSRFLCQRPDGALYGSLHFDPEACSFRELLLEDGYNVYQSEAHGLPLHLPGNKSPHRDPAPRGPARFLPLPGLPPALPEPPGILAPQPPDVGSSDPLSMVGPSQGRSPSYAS
The experiment in a line: sandwich ELISA; capture mAb15, detection mAb4. The source says:
(§1) The absorbance values were plotted as a function of antibody concentration and the data were fitted to a three parameter equation for each antibody using Prism 6 (GraphPad Software, Inc., La Jolla, Calif.). The most consistent result was observed when antibodies mAb4 or 9 were used as the capture antibody and antibody mAb11 or mAb15 was used as the detector antibody (FIG. 2 and Table 7). Therefore, mAb8 and 16 were removed from further analysis.
(In general: An ELISA detects its analyte on a solid surface through an enzyme-linked reagent.)

Experiment [2] concerns the target T2, FAP-cleaved human FGF21 (human, UniProt Q9NSA1 29-199).
T2 construct: Made by digesting intact human FGF21 with human FAP; also called cleaved FGF21; cFGF21
T2 sequence: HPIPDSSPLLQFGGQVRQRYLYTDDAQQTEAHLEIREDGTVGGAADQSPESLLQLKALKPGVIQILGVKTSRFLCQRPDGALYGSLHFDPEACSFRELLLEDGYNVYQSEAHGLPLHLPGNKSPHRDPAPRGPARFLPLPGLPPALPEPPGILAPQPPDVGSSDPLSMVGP
As to the kind of experiment: sandwich ELISA; capture mAb15, detection mAb4.
Source text: as §1

Experiment [3] has as its target T1, intact human FGF21. As to the kind of experiment: sandwich ELISA; capture mAb15, detection mAb11.
Source text: as §1

Experiment [4] has as its target T2, FAP-cleaved human FGF21. As to the kind of experiment: sandwich ELISA; capture mAb15, detection mAb11.
Source text: as §1

Experiment [5] addresses T2, FAP-cleaved human FGF21. As to the kind of experiment: sandwich ELISA; EC50 on FAP-cleaved FGF21 over EC50 on intact FGF21. The protocol:
(§2) IgG obtained from the selected 20 hybridomas identified in Example 1 were further characterized by ELISA. ELISA was performed as follows: 96 well MaxiSorp plate (439454, Nalge Nunc International; Rochester, N.Y.) was coated with 1 μg/mL of anti-FGF21 mAbs or anti-FGF21 sheep pAbs (Cat. No. RD184108100, Biovendor, Asheville, N.C.) in coating buffer (50 mM sodium carbonate, pH 9.6) overnight at 4° C. […] After washing with the Washing buffer, the plate was incubated with 0.5 μg/ml of the secondary antibody (R&D Systems, biotinylated goat anti-FGF21 pAb BAF2539) for 1-2 hr at room temperature. After washing with Washing buffer, the plate was incubated with High Sensitivity Streptavidin-HRP (PIERCE Cat. No. 21130) diluted 1:1,000 in assay buffer. After washing with the Washing buffer, the binding of anti-FGF21 to recombinant FGF21 was assessed by adding substrate 3, 3′, 5, 5′ tetramethyl benzidine (TMBE 1000, Moss; Pasadena, Md.). The mean absorbance values from duplicate wells were plotted as a function of antibody concentration and the data were fitted to a three parameter equation to calculate the half maximal effective concentration (EC₅₀) values for each antibody using Prism 6 (GraphPad Software, Inc., La Jolla, Calif.) (Table 2).

The target of experiment [6] is T1, intact human FGF21. As to the kind of experiment: sandwich ELISA, intact human FGF21; capture mAb11, detector mAb4.
Experiment [7] deals with T1, intact human FGF21. The experiment in a line: sandwich ELISA; capture mAb11, detection mAb15.
Source text: as §1

The target of experiment [8] is T2, FAP-cleaved human FGF21. As to the kind of experiment: sandwich ELISA; capture mAb11, detection mAb15.
Source text: as §1

Experiment [9] has as its target T1, intact human FGF21. The experiment in a line: sandwich ELISA; capture mAb11, detection mAb4.
Source text: as §1

The target of experiment [10] is T2, FAP-cleaved human FGF21. The experiment in a line: sandwich ELISA; capture mAb11, detection mAb4.
Source text: as §1

The target in experiment [11] is T1, intact human FGF21. The experiment in a line: sandwich ELISA; coated primary Ab, FGF21 titrated, detector biotinylated goat anti-FGF21 pAb BAF2539. The protocol: as §2
Experiment [12] concerns the target T2, FAP-cleaved human FGF21. The experiment is described as above. The protocol: as §2
Experiment [13] has as its target T1, intact human FGF21. As to the kind of experiment: sandwich ELISA, intact human FGF21; capture mAb11, detector mAb9.
Experiment [14] concerns the target T1, intact human FGF21. The experiment in a line: sandwich ELISA; capture mAb4, detection mAb15.
Source text: as §1

Experiment [15] has as its target T2, FAP-cleaved human FGF21. As to the kind of experiment: sandwich ELISA; capture mAb4, detection mAb15.
Source text: as §1

The target of experiment [16] is T1, intact human FGF21. As to the kind of experiment: sandwich ELISA, intact human FGF21; capture mAb4, detector mAb10. From the text:
(§3) The absorbance values were plotted as a function of antibody concentration and the data were fitted to a three parameter equation to calculate the half maximal effective concentration (EC₅₀) values for each antibody using Prism 6 (GraphPad Software, Inc., La Jolla, Calif.) (Table 6).

For experiment [17], the target named is T1, intact human FGF21. As to the kind of experiment: sandwich ELISA, intact human FGF21; capture mAb4, detector mAb1.
Source text: as §3

In experiment [18] the target is T1, intact human FGF21. As to the kind of experiment: sandwich ELISA; capture mAb4, detection mAb16.
Source text: as §1

In experiment [19] the target is T2, FAP-cleaved human FGF21. The experiment in a line: sandwich ELISA; capture mAb4, detection mAb16.
Source text: as §1

For experiment [20], the target named is T1, intact human FGF21. As to the kind of experiment: sandwich ELISA; capture mAb4, detection mAb11.
Source text: as §1

Experiment [21] addresses T2, FAP-cleaved human FGF21. As to the kind of experiment: sandwich ELISA; capture mAb4, detection mAb11.
Source text: as §1

In experiment [22] the target is T1, intact human FGF21. As to the kind of experiment: sandwich ELISA, intact human FGF21; capture mAb4, detector mAb11.
Source text: as §3

Experiment [23] addresses T1, intact human FGF21. As to the kind of experiment: sandwich ELISA; capture mAb9, detection mAb16.
Source text: as §1

The target in experiment [24] is T2, FAP-cleaved human FGF21. As to the kind of experiment: sandwich ELISA; capture mAb9, detection mAb16.
Source text: as §1

The target of experiment [25] is T1, intact human FGF21. The experiment in a line: sandwich ELISA, intact human FGF21; capture mAb9, detector mAb10.
Source text: as §3

For experiment [26], the target named is T1, intact human FGF21. The experiment in a line: sandwich ELISA; capture mAb9, detection mAb11.
Source text: as §1

Experiment [27] deals with T2, FAP-cleaved human FGF21. As to the kind of experiment: sandwich ELISA; capture mAb9, detection mAb11.
Source text: as §1

Experiment [28] has as its target T1, intact human FGF21. As to the kind of experiment: sandwich ELISA; capture mAb9, detection mAb15.
Source text: as §1

The target in experiment [29] is T2, FAP-cleaved human FGF21. The experiment in a line: sandwich ELISA; capture mAb9, detection mAb15.
Source text: as §1

Experiment [30] addresses T1, intact human FGF21. As to the kind of experiment: sandwich ELISA, intact human FGF21; capture mAb9, detector mAb11.
Experiment [31] addresses T1, intact human FGF21. The experiment in a line: sandwich ELISA, intact human FGF21; capture mAb9, detector mAb1.

B1: mAb15 (antibody, V domains shown)
VH: QVQLIQSGPGLVQPSQSLSITCTVSGFSLTGYAIHWVRQSPGKGLEWLGMIWKSGNTDYNAAFMSRLSITKDNSKSQVFFKMNSLQADDTAIYYCARNGYDYEFVYWGQGTLVTVSA
VL: DVLMTQTPLSLPVSLGDQASISCRSSQIIVHNNGDTYLEWYLQKPGQSPKLLIYKISNRFSGVPDRFSGSGSGTDFTLKISRVEAEDLGVYYCFQGSHVPYTFGGGTKLEIKR
notes: Biotinylated when used as detector; also called BIO-15 (biotinylated); mAb15-Biotin
As usually defined, the EC50 is the concentration giving half of the maximal effect. With B1, the EC50 with intact human FGF21 [1] came to 0.537 ng/mL; with FAP-cleaved human FGF21 [2], 0.562 ng/mL; in the experiment with intact human FGF21 [3] it was 1.39 ng/mL; with FAP-cleaved human FGF21 [4], 1.24 ng/mL.

B2: mAb11 (antibody, V domains shown)
VH: QVQLQQSGAELARPGASVKLSCKASGYTFTNYGISWVKQRTGQGLEWIGEIYPRSDNTYYNEKFKGKATLTADKSSSTAYMELRSLTSEDSAVYFCTRSDYGFFDYWGQGTTLTVSS
VL: QIVLTQSPALMSASPGERVTMTCSAGSSVSYMYWYQQKPRSSPKPWIYLTSNLASGVPARFSGSGSGTSYSLTISSMEAEDAATYYCQQWSSNPRTFGGGTKLEIKR
notes: Biotinylated when used as detector; also called BIO-11 (biotinylated); antibody 11
For B2, the “EC50 ratio (Cleaved/Intact)” value with FAP-cleaved human FGF21 [5] is 2.1. Further, the EC50 with intact human FGF21 [6] worked out at 0.161 ng/mL; with intact human FGF21 [7], 0.774 ng/mL; in the experiment with FAP-cleaved human FGF21 [8], 0.63 ng/mL; with intact human FGF21 [9] it was 0.205 ng/mL; with FAP-cleaved human FGF21 [10], 0.204 ng/mL; with intact human FGF21 [11], 0.149 ng/mL. The 50% effective concentration (EC50) worked out at 0.318 ng/mL with FAP-cleaved human FGF21 [12] and 0.195 ng/mL with intact human FGF21 [13].

B3: mAb4 (antibody, V domains shown)
VH: EVKLVESGGDLVKPGGSLKLSCAASGFTFSSYGMSWVRQTPDKRLEWVATISTGGGYTYYPDSVKGRFTISRDNAKNTLYLQMSSLRSEDTAMYYCARHDLVDWYFDVWGTGTTVTVSS
VL: QIVLTQSPAIMSAPLGERVTMTCTASSSVSSSYLHWYQQKPGSSPKVWIYRTTNLASGVPTRFSGSGSGTSYSLTISSMEAEDAATYYCHQYHRSPPTWTFGGGTKLEIKR
notes: Biotinylated when used as detector, coupled to beads in the Simoa assays; also called BIO-4 (biotinylated); antibody 4
As for B3, the EC50 stood at 0.232 ng/mL in the experiment with intact human FGF21 [14]; 0.263 ng/mL with FAP-cleaved human FGF21 [15]; 0.108 ng/mL with intact human FGF21 [16]; 0.193 ng/mL with intact human FGF21 [17]; 1.25 ng/mL in the experiment with intact human FGF21 [18]; 7.04 ng/mL in the experiment with FAP-cleaved human FGF21 [19]. In addition, the EC50 in the experiment with intact human FGF21 [20] is 0.195 ng/mL; with FAP-cleaved human FGF21 [21] it was 0.148 ng/mL; in the experiment with intact human FGF21 [22] it was 0.133 ng/mL; with intact human FGF21 [11] it was 0.09 ng/mL; with FAP-cleaved human FGF21 [12], 0.17 ng/mL. In addition, the “EC50 ratio (Cleaved/Intact)” value in the experiment with FAP-cleaved human FGF21 [5] is 1.9.

B4: mAb9 (antibody, V domains shown)
VH: EVQLQQSGPELVKPGASVKIPCKASGYTFTDYYMGWVKQSHGKSLEWIGDINPNNGVTINNQNFKGKATLTVDKSSSTAYMELRSLASEDTAVYYCTRGYGGALDYWGQGTSVTVSS
VL: DIQMTQSPASLSASVGETVIITCRASENIYSYLAWYQQKQGKSPQLLVYNIRTLAEGVPSRFSGSGSGTQFSLKINSLQPEDFGSYYCQHHYDSPWTFGGGTKLEIKR
notes: also called BIO-9 (biotinylated); antibody 9
For the molecule B4, the EC50 with intact human FGF21 [23] turned out to be 1.45 ng/mL; in the experiment with FAP-cleaved human FGF21 [24] it was 6.23 ng/mL; with intact human FGF21 [25] it was 0.161 ng/mL; with intact human FGF21 [26] it was 0.166 ng/mL; with FAP-cleaved human FGF21 [27] it was 0.156 ng/mL; with intact human FGF21 [28] it was 0.431 ng/mL. Further, the EC50 with FAP-cleaved human FGF21 [29] is 0.363 ng/mL; with intact human FGF21 [30] it was 0.156 ng/mL; with intact human FGF21 [31] it was 0.249 ng/mL; with intact human FGF21 [11], 0.855 ng/mL; in the experiment with FAP-cleaved human FGF21 [12] it was 1.39 ng/mL. In addition, the “EC50 ratio (Cleaved/Intact)” value with FAP-cleaved human FGF21 [5] was found to be 1.6.
